Measurements: the supplement of paper PMC10567573

B1: RAB11B (parent)
chain: AVPTDEARAFAEKNNLSFIETSAL
B2: ANKRD44 (parent)
chain: FHCIETLVTTGANVNETDDWGRTA

Variants of: B1
Assay: protein stability index of a GFP-peptide fusion (GPS, HEK-293T) (PSI 1-6); higher = more stable
Conditions: c terminus: a fixed tail appended
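Also: lentivirally expressed fusions sorted by FACS into six bins by GFP to DsRed ratio, PSI derived from sequencing read proportions per bin multiplied by bin number.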

Protein stability index: each site, then its substitutions
V2: M 3.41 | D 3.41 | Q 2.34 | P 3.2 | I 2.74 | W 2.52 | G 2.74 | Y 2.52 | L 3.28 | R 2.35 | C 3.02 | N 3.85 | F 2.64 | H 3.86 | S 3.09 | K 2.52 | E 3.96 | T 2.62 | A 2.55
F10: T 3.78 | D 4.06 | H 3.74 | S 3.28 | K 2.89 | A 3.38 | G 3.12 | L 3.19 | Y 3.2 | W 2.34 | N 3.25 | P 2.73 | V 3.41 | I 3.33 | E 4.11 | M 2.9 | Q 3.45 | R 2.74 | C 3.1
A9: D 3.4 | T 3.02 | E 3.82 | Q 3.14 | G 2.85 | N 2.52 | S 2.33 | C 2.49 | K 1.91 | L 2.98 | F 2.63 | P 2.44 | I 2.45 | W 1.78 | M 2.79 | V 2.71 | Y 2.48 | H 2.07 | R 2.32
A11: V 2.3 | T 2.71 | W 2.48 | S 2.68 | R 2.35 | P 2.8 | G 2.16 | E 3.69 | D 3.88 | N 2.87 | M 2.8 | Q 2.85 | I 2.66 | C 3.16 | Y 2.15 | H 2.3 | L 2.4 | K 2.19 | F 2.69
E12: H 2.65 | N 2.02 | T 2.61 | V 2.47 | Q 2.52 | I 1.99 | P 2.34 | F 1.74 | L 2.02 | K 1.93 | R 2.15 | C 1.91 | G 2.16 | S 2.08 | A 2.89 | W 1.6 | D 2.81 | Y 1.93 | M 1.97
L16: F 3.36 | A 3.8 | I 3.95 | E 5.02 | G 4.3 | Q 4 | R 4.42 | C 4.1 | P 4.47 | M 4.2 | N 4.25 | T 4.57 | H 4.06 | K 4.62 | V 4.29 | S 4.37 | D 4.52
A1: R 2.26 | E 3.65 | P 3.02 | M 2.64 | G 3.06 | N 2.88 | I 2.07 | D 2.95 | L 2.67 | C 2.43 | Y 2.69 | F 2.66 | W 2.26 | S 2.65 | Q 2.63 | H 2.9 | K 2.57 | T 2.74 | V 2.62
K13: M 2.09 | D 3.24 | C 2.47 | N 1.59 | S 2.48 | P 2.12 | Y 1.88 | G 3.17 | T 2.63 | Q 2.84 | R 2.5 | I 2.09 | H 2.24 | F 2.49 | E 3.9 | A 3.08 | W 1.94 | V 2.13 | L 2.14
N14: R 2.27 | L 2.23 | S 2.84 | C 2.18 | A 2.48 | V 2.18 | Q 3.47 | Y 2.53 | F 2.25 | I 2.23 | P 2.53 | E 4.35 | G 2.73 | D 3.96 | H 2.26 | W 2.83 | T 2.88 | K 3.38 | M 2.25
T4: D 3.63 | L 2.33 | I 2.77 | F 2 | V 2.78 | Q 3.05 | A 2.45 | S 2.6 | P 2.5 | Y 2.37 | W 2.21 | K 2 | N 2.65 | C 2.78 | H 2.5 | M 1.98 | R 1.77 | G 3.17 | E 3.23
P3: H 2.33 | L 2.28 | Q 3.16 | V 3.05 | F 1.96 | G 2.92 | Y 2.55 | N 3.27 | T 3.17 | I 2.63 | S 2.57 | K 2.44 | E 3.33 | M 2.43 | R 2.1 | W 2.91 | A 2.93 | D 3.28 | C 2.77
A7: E 2.92 | K 2.5 | S 2.79 | R 2.6 | Q 3.46 | G 3.14 | C 2.47 | I 2.39 | H 2.23 | D 4.09 | Y 2.94 | T 3.17 | V 2.7 | L 2.16 | P 2.86 | N 3.1 | F 1.98 | M 2.27 | W 2.58
E6: R 1.86 | I 2.71 | C 2.46 | Q 2.24 | A 2.45 | H 2.61 | T 2 | N 2.25 | S 2.2 | M 2.19 | F 1.66 | Y 1.67 | D 2.95 | W 2.04 | L 2.32 | K 2.04 | P 2.93 | G 2.58 | V 2.08
D5: P 1.89 | W 1.38 | E 2.82 | Q 2.42 | T 2.13 | C 2.82 | R 2.07 | F 2.17 | V 1.99 | M 2.07 | H 2.61 | N 1.92 | Y 2.08 | K 1.41 | L 2.46 | G 2.31 | A 2.31 | I 2.15 | S 2.33
R8: C 2.78 | M 2.45 | W 2.94 | I 2.9 | G 3.22 | P 2.65 | E 3.31 | T 2.67 | Q 2.45 | Y 3.12 | A 2.77 | F 2.69 | V 3.04 | N 3.06 | K 3.08 | H 2.99 | L 2.33 | S 2.46 | D 3.37

Variants of: B2
Assay: as above
Conditions: c terminus: a fixed tail appended

Protein stability index: each site, then its substitutions
T23: G 2.42 | H 2.42 | L 1.91 | F 2.06 | P 2.13 | N 2.17 | K 2.26 | Y 1.83 | Q 2.24 | C 1.87 | A 2.27 | R 2.05 | D 2.71 | V 2.14 | E 2.71 | M 1.38 | W 1.56 | S 2.31 | I 1.86
A24: P 2.63 | I 1.88 | E 2.27 | V 2.01 | H 2.39 | N 2.03 | L 1.91 | R 2.37 | S 2.06 | Y 1.78 | M 2.39 | T 2.21 | G 2.05 | D 2.74 | F 2.24 | W 1.16 | K 2.46 | C 1.98 | Q 2.06
R22: L 2.5 | Y 1.95 | N 2.35 | S 2.71 | T 2.46 | M 2.27 | W 1.49 | Q 2.7 | I 1.9 | V 2.29 | K 2.36 | P 3.06 | H 1.98
